Here are results for six molecules from patent US20260193326A1.

Residue numbers refer to the chain shown, from its start.

Sequences and labels used below:
B1: A4-D8 (bispecific antibody)
chain: VQLQESGGGLVQPGGSLRLSCAASGSRFSLNTMGWYRQAPGKQRELVATVTRGGSTNYADSVKGRFTISRDNAKNTVYLQMNSLRPEDTAVYYCHVDELRESGWTTSNLWGQGTQVTVSSGGGGSGGGGSGGGGSVQLQESGGGLVQPGGSLRLSCAASGSRFSLNTMGWYRQAPGKQRELVATVTRGGSTNYADFVKGRFTISRDNAKNTVYLQMNSLRPEDTAVYYCHVDELRESGWTTSNLWGQGTQVTVSSGGGGSGGGGSGGGGSVQLQESGGGLVHSGGSLRLSCAASGSMFSLNTMGWYRQAPGKQRELVATITRGGGTSYADSVKGRFTISRDNAKNTVYLQMNSLRPEDTAVYYCHVDELRQSSWTTSNLWGQGTQVTVSSGGGGSGGGGSGGGGSVQLQESGGGLVQPGGSLRLSCAASGSRFSLNTMGWYRQAPGKQRELVATVTRGGSTNYADFVKGRFTISRDNAKNTVYLQMNSLRPEDTAVYYCHVDELRESGWTTSNLWGQGTQVTVSS
B2: A4-D9 (bispecific antibody)
chain: VQLQESGGGLVHSGGSLRLSCAASGSMFSLNTMGWYRQAPGKQRELVATITRGGGTSYADSVKGRFTISRDNAKNTVYLQMNSLRPEDTAVYYCHVDELRQSSWTTSNLWGQGTQVTVSSGGGGSGGGGSGGGGSVQLQESGGGLVQPGGSLRLSCAASGSRFSLNTMGWYRQAPGKQRELVATVTRGGSTNYADFVKGRFTISRDNAKNTVYLQMNSLRPEDTAVYYCHVDELRESGWTTSNLWGQGTQVTVSSGGGGSGGGGSGGGGSVQLQESGGGLVQPGGSLRLSCAASGSRFSLNTMGWYRQAPGKQRELVATVTRGGSTNYADFVKGRFTISRDNAKNTVYLQMNSLRPEDTAVYYCHVDELRESGWTTSNLWGQGTQVTVSSGGGGSGGGGSGGGGSVQLQESGGGLVQTGGSLRLSCAASGRAFSLNTMGWYRQAPGKWRELVATVTRGGSTNYAGSVKGRFTISRDNAKNTVYLQMNNLRPEDTAVYYCHVDEVRESSWTTSNLWGQGTQVTVSS
B3: A4-D12 (protein)
chain: VQLQESGGGLVQPGGSLRLSCAASGSIFSINTMGWYRQAPGKQRELVAAVTRGGSTNYADSVKGRFTISRDNAKNTVYLQMNSLRPEDTAVYYCHVDEVRQSSWTTSNLWGQGTQVTVSSGGGGSGGGGSGGGGSVQLQESGGGLAQAGGSLRLSCAASGRGFSINTMGWYRQAPGKQRELVAAVTRGGTTNYADSVKGRFTISRDNAKNTVYLQMNSLRPEDTAVYYCHVDEVRQSSWTTSNLWGQGTQVTVSSGGGGSGGGGSGGGGSVQLQESGGGLVQPGGSLRLSCAASGRAFSINTMGWYRQAPGKQRELVATVTRDGSTNYAGSVKGRFTISRDNAKNTVYLQMNSLRPEDTAVYYCHVDEVRQSSWTTSNLWGQGTQVTVSSGGGGSGGGGSGGGGSVQLQESGGGLVQPGGSLRLSCAASGSIFIINTMGWYRRAPGKQRELVAAVTRGGSTNYADSVKGRFTISRDNAKNTVYLQMNSLRPEDTAVYYCHVDEVRQSSWTTSNLWGQGTQVTVSS
B4: A4-D13 (protein)
chain: VQLQESGGGLVQPGGSLRLSCAASGSIFIINTMGWYRRAPGKQRELVAAVTRGGSTNYADSVKGRFTISRDNAKNTVYLQMNSLRPEDTAVYYCHVDEVRQSSWTTSNLWGQGTQVTVSSGGGGSGGGGSGGGGSVQLQESGGGLVQPGGSLRLSCAASGSIFSINTMGWYRQAPGKQRELVAAVTRGGSTNYADSVKGRFTISRDNAKNTVYLQMNSLRPEDTAVYYCHVDEVRQSSWTTSNLWGQGTQVTVSSGGGGSGGGGSGGGGSVQLQESGGGLAQAGGSLRLSCAASGRGFSINTMGWYRQAPGKQRELVAAVTRGGTTNYADSVKGRFTISRDNAKNTVYLQMNSLRPEDTAVYYCHVDEVRQSSWTTSNLWGQGTQVTVSSGGGGSGGGGSGGGGSVQLQESGGGLVQPGGSLRLSCAASGRAFSINTMGWYRQAPGKQRELVATVTRDGSTNYAGSVKGRFTISRDNAKNTVYLQMNSLRPEDTAVYYCHVDEVRQSSWTTSNLWGQGTQVTVSS
B5: A4-D10 (protein)
chain: VQLQESGGGLAQAGGSLRLSCAASGRGFSINTMGWYRQAPGKQRELVAAVTRGGTTNYADSVKGRFTISRDNAKNTVYLQMNSLRPEDTAVYYCHVDEVRQSSWTTSNLWGQGTQVTVSSGGGGSGGGGSGGGGSVQLQESGGGLVQPGGSLRLSCAASGRAFSINTMGWYRQAPGKQRELVATVTRDGSTNYAGSVKGRFTISRDNAKNTVYLQMNSLRPEDTAVYYCHVDEVRQSSWTTSNLWGQGTQVTVSSGGGGSGGGGSGGGGSVQLQESGGGLVQPGGSLRLSCAASGSIFIINTMGWYRRAPGKQRELVAAVTRGGSTNYADSVKGRFTISRDNAKNTVYLQMNSLRPEDTAVYYCHVDEVRQSSWTTSNLWGQGTQVTVSSGGGGSGGGGSGGGGSVQLQESGGGLVQPGGSLRLSCAASGSIFSINTMGWYRQAPGKQRELVAAVTRGGSTNYADSVKGRFTISRDNAKNTVYLQMNSLRPEDTAVYYCHVDEVRQSSWTTSNLWGQGTQVTVSS
B6: A4-D11 (protein)
chain: B5 chain with A11V, A13P, R161S, A162I, T184A, D188G, G195D, I432S, S434V

The target in one experiment is AAV8 (adeno-associated virus serotype 8). The experiment is described as follows: SPR, AAV on CM5 chip. In general terms: In SPR one partner is held on a chip, and binding of the other changes the refractive index at the surface.
Turning to B1, the Kd came out at 0.228 nM, the koff stood at 1.1e-05 s⁻¹ and the kon came to 48200 M⁻¹ s⁻¹.

The molecule B2 displayed a Kd of 0.318 nM, a koff of 9.9e-06 s⁻¹ and a kon of 31100 M⁻¹ s⁻¹.

The molecule B3 registered a Kd of 0.262 nM, an off-rate constant (koff) of 6.5e-06 s⁻¹ and a kon of 24800 M⁻¹ s⁻¹.

As for B4, the equilibrium dissociation constant (Kd) is 0.355 nM, the off-rate (koff) was found to be 6.9e-06 s⁻¹ and the kon was found to be 19400 M⁻¹ s⁻¹.

Take B5: the dissociation constant (Kd) was 0.542 nM, the koff is 1.66e-05 s⁻¹ and the on-rate (kon) was determined as 30700 M⁻¹ s⁻¹.

Consider B6, for which the equilibrium dissociation constant (Kd) was found to be 0.319 nM, the koff was 1.5e-05 s⁻¹ and the on-rate constant (kon) stood at 47000 M⁻¹ s⁻¹.

Another experiment has as its target AAV5 (adeno-associated virus serotype 5). Description: SPR, AAV on CM5 chip.
In turn, B1 had a Kd of 1.49 nM, a koff of 1.96e-05 s⁻¹ and a kon of 13200 M⁻¹ s⁻¹.

Molecule B2 returned a Kd of 0.1 nM, a koff of 2.3e-06 s⁻¹ and an association rate constant (kon) of 22900 M⁻¹ s⁻¹.

B3: the Kd was determined as 0.44 nM, the koff was 1.7e-05 s⁻¹ and the kon stood at 38600 M⁻¹ s⁻¹.

B4 came in with a dissociation constant (Kd) of 0.701 nM, a koff of 1.31e-05 s⁻¹ and a kon of 18700 M⁻¹ s⁻¹.

B5 had a Kd of 0.481 nM, a koff of 8.3e-06 s⁻¹ and a kon of 17300 M⁻¹ s⁻¹.

Consider B6, for which the Kd is 1.15 nM, the koff amounted to 1.4e-05 s⁻¹ and the on-rate (kon) is 12200 M⁻¹ s⁻¹.

A further experiment deals with AAV9 (adeno-associated virus serotype 9). Description: SPR, AAV on CM5 chip.
On to B1, for which the Kd was found to be 0.313 nM, the koff came out at 1.32e-05 s⁻¹ and the kon was found to be 42200 M⁻¹ s⁻¹.

Molecule B2 returned a Kd of 0.745 nM, a koff of 1.94e-05 s⁻¹ and a kon of 26000 M⁻¹ s⁻¹.

With B3, the Kd is 0.0555 nM, the koff came to 3e-06 s⁻¹ and the kon is 54000 M⁻¹ s⁻¹.

In turn, B4 showed a Kd of 0.0471 nM, a koff of 2.6e-06 s⁻¹ and a kon of 55200 M⁻¹ s⁻¹.

B5 came in with a Kd of 0.0611 nM, an off-rate constant (koff) of 1.9e-06 s⁻¹ and a kon of 31100 M⁻¹ s⁻¹.

In turn, B6 returned a Kd of 0.181 nM, a koff of 4.8e-06 s⁻¹ and a kon of 26500 M⁻¹ s⁻¹.

Usually Kd stands for the free concentration of one partner at which half of the binding sites on the other are occupied at equilibrium, for simple one-to-one binding. A high value points to lower affinity. A word on the koff: it is the rate constant with which the complex falls apart. A higher koff goes with a short-lived complex. By kon is commonly meant a measure of how fast the partners come together.
